In the RNAGym collection of RNA variant scans (doi:10.1021/acssynbio.7b00057):

B1: Pistol ribozyme (parent)
chain: GGGUCGUUGUUCCAUAAUCGCGUGGAUAUGGCACGCAAGUUUCUACCGGGCACCGUAAAUGUCCGACUGGAGCCGUUCGGGCGGCUAUAAACAGACCUCAGGCCCGAAGCGUGGCGGCACCUGCCGCCGGUGGUAAAAAAGAUCGGAAGAGCACACGUCU

Variants of: B1
Experiment: aptazyme ON/OFF ratio, guanine; higher = stronger switching; co-transcriptional cleavage with and without guanine

Row | Variant | aptazyme ON/OFF ratio
1 | U7G G9A U10C C12U C13G | 1.15
2 | U7G G9A U10C C12U C13U | 1.19
3 | U7G G9A U10A U11G C12G | 1.13
4 | U7G G9A U10A U11G C12A | 1.13
5 | U7G G9A U10A U11G C12U | 1.24
6 | U7G G9A U11G C12G | 1.17
7 | U7G G9A U11G C12U | 1.3
8 | U7G G9A U11G C12A | 1.17
9 | U7G G9A U11A C12A | 1.12
10 | U7G G9A U11A C12U | 1.41
11 | U7G G9A U11A C12G | 1.21
12 | U7G G9C C12G C13G | 1.26
13 | U7G G9C C12G C13U | 1.43
14 | U7G G9C C12G C13A | 1.3
15 | U7G G9A U10G U11A C12G C13G | 1.11
16 | U7G G9A U10G U11A C12G C13A | 1.12
17 | U7G G9A U10G U11A C12G C13U | 1.05
18 | U7G G9A U10A U11A C12G | 1.2
19 | U7G G9A U10A U11A C12U | 1.2
20 | U7G G9A U10A U11A C12A | 1.1
21 | U7G G9A U10C U11A C12G C13A | 1.11
22 | U7G G9A U10C U11A C12G C13U | 1.12
23 | U7G G9A U10C U11A C12G C13G | 1.07
24 | U7G G9C U10A U11A | 2.95

Row | Variant | aptazyme ON/OFF ratio
25 | U7G G9A U10C U11G C12U C13U | 1.14
26 | U7G G9A U10C U11G C12U C13A | 1.11
27 | U7G G9A U10C U11G C12U C13G | 1.11
28 | U7G G9A U10A C12U C13A | 1.14
29 | U7G G9A U10A C12U C13G | 1.24
30 | U7G G9A U10A C12U C13U | 1.22
31 | U7G G9A U11C C12G C13U | 1.13
32 | U7G G9A U11C C12G C13A | 1.11
33 | U7G G9A U11C C12G C13G | 1.07
34 | U7G G9A U11C | 1.17
35 | U7G G9A U11G | 1.64
36 | U7G G9A U11A | 2.46
37 | U7G G9A U11C C12U | 1.39
38 | U7G G9A U11C C12G | 1.27
39 | U7G G9A U11C C12A | 1.34
40 | U7G | 1.89
41 | U7G G9A U10C U11C C12G C13U | 1.03
42 | U7G G9A U10C U11C C12G C13A | 1.1
43 | U7G G9A U10C U11C C12G C13G | 1.05
44 | U7G G9A U10G U11G C12U | 1.16
45 | U7G G9A U10G U11G C12A | 1.1
46 | U7G G9A U10G U11G C12G | 1.09
47 | U7G G9C U10A C12A C13A | 1.2
48 | U7G G9C U10A C12A C13G | 1.09

Row | Variant | aptazyme ON/OFF ratio
49 | U7G G9C U10A C12A C13U | 1.2
50 | U7G G9A C13U | 1.49
51 | U7G G9A C13A | 1.24
52 | U7G G9A C13G | 1.11
53 | U7G G9A U10A U11G C12A C13A | 1.05
54 | U7G G9A U10A U11G C12A C13U | 1.12
55 | U7G G9A U10A U11G C12A C13G | 1.08
56 | U7G G9A C12A C13A | 1.09
57 | U7G G9A C12A C13U | 1.13
58 | U7G G9A C12A C13G | 1.15
59 | U7G G9A U10C U11G C13G | 1.17
60 | U7G G9A U10C U11G C13A | 1.09
61 | U7G G9A U10C U11G C13U | 1.14
62 | U7G G9A U10C C12U | 1.59
63 | U7G G9A U10C C12G | 1.38
64 | U7G G9A U10C C12A | 1.28
65 | U7G G9A U11A C13U | 1.2
66 | U7G G9A U11A C13G | 1.1
67 | U7G G9A U11A C13A | 1.14
68 | U7G G9A U10C U11G C12A C13U | 1.11
69 | U7G G9A U10C U11G C12A C13A | 1.07
70 | U7G G9A U10C U11G C12A C13G | 1.1
71 | U7G G9C U10A C13U | 1.16
72 | U7G G9C U10A C13A | 1.2

Row | Variant | aptazyme ON/OFF ratio
73 | U7G G9C U10A C13G | 1.07
74 | U7G G9A C12U C13U | 1.18
75 | U7G G9A C12U C13A | 1.14
76 | U7G G9A C12U C13G | 1.15
77 | U7G G9A U10G C12U C13G | 1.11
78 | U7G G9A U10G C12U C13A | 1.11
79 | U7G G9A U10G C12U C13U | 1.1
80 | U7G G9A U10A U11A C12G C13A | 1.1
81 | U7G G9A U10A U11A C12G C13U | 1.12
82 | U7G G9A U10A U11A C12G C13G | 1.19
83 | U7G G9A U10A U11A C12A C13U | 1.11
84 | U7G G9A U10A U11A C12A C13G | 1.13
85 | U7G G9A U10A U11A C12A C13A | 1.07
86 | U7G G9A U10A C12G C13G | 1.12
87 | U7G G9A U10A C12G C13U | 1.25
88 | U7G G9A U10A C12G C13A | 1.09
89 | U7G G9A U10C U11C C12A C13U | 1.12
90 | U7G G9A U10C U11C C12A C13A | 1.11
91 | U7G G9A U10C U11C C12A C13G | 1.19
92 | U7C U11G C12U C13G | 1.06
93 | U7C U11G C12U C13A | 1.13
94 | U7C U11G C12U C13U | 1.2
95 | U7G G9A U10C U11C C13G | 1.03
96 | U7G G9A U10C U11C C13U | 1.02

Row | Variant | aptazyme ON/OFF ratio
97 | U7G G9A U10C U11C C13A | 1.04
98 | U7G G9A U10A U11G C12U C13G | 1.09
99 | U7G G9A U10A U11G C12U C13A | 1.07
100 | U7G G9A U10A U11G C12U C13U | 1.11
101 | U7G G9A U10A U11G C12G C13A | 1.09
102 | U7G G9A U10A U11G C12G C13G | 1.14
103 | U7G G9A U10A U11G C12G C13U | 1.22
104 | U7G G9A U10A U11C C12U C13U | 1.2
105 | U7G G9A U10A U11C C12U C13G | 1.15
106 | U7G G9A U10A U11C C12U C13A | 1.15
107 | U7G G9A U11C C12U C13A | 1.15
108 | U7G G9A U11C C12U C13U | 1.3
109 | U7G G9A U11C C12U C13G | 1.19
110 | U7C U11C C12U | 1.5
111 | U7G G9A U10A U11C C12U | 1.05
112 | U7G G9A U10A U11C C12G | 1.22
113 | U7G G9A U10A U11C C12A | 1.24
114 | U7G G9A U11A C12A C13A | 1.18
115 | U7G G9A U11A C12A C13U | 1.15
116 | U7G G9A U11A C12A C13G | 1.09
117 | U7G G9A U10G C12G C13U | 1.07
118 | U7G G9A U10G C12G C13G | 1.12
119 | U7G G9A U10G C12G C13A | 1.1
120 | U7G G9A U10A U11C C12A C13A | 1.13

Row | Variant | aptazyme ON/OFF ratio
121 | U7G G9A U10A U11C C12A C13U | 1.21
122 | U7G G9A U10A U11C C12A C13G | 1.1
123 | U7G G9A U10A C13U | 1.28
124 | U7G G9A U10A C13A | 1.07
125 | U7G G9A U10A C13G | 1.06
126 | U7G G9A U10A C12U | 1.31
127 | U7G G9A U10A C12A | 1.2
128 | U7G G9A U10A C12G | 1.18
129 | U7G G9A U11G C12U C13A | 1.09
130 | U7G G9A U11G C12U C13G | 1.11
131 | U7G G9A U11G C12U C13U | 1.2
132 | U7G G9A U10A U11A C13A | 1.14
133 | U7G G9A U10A U11A C13G | 1.09
134 | U7G G9A U10A U11A C13U | 1.2
135 | U7C U11G C12U | 1.26
136 | U7C U11G C12A | 1.18
137 | U7C U11G C12G | 1.31
138 | U7G G9A U10C U11A C13U | 1.19
139 | U7G G9A U10C U11A C13G | 1.09
140 | U7G G9A U10C U11A C13A | 1.17
141 | U7G G9A U11C C13G | 1.09
142 | U7G G9A U11C C13A | 1.11
143 | U7G G9A U11C C13U | 1.14
144 | U7G G9A U10G U11C C12A C13U | 1.1

Row | Variant | aptazyme ON/OFF ratio
145 | U7G G9A U10G U11C C12A C13A | 1.09
146 | U7G G9A U10G U11C C12A C13G | 1.06
147 | U7C U11C C12U C13G | 1.22
148 | U7C U11C C12U C13U | 1.29
149 | U7C U11C C12U C13A | 1.39
150 | U7G G9A C12U | 1.41
151 | U7G G9A C12G | 1.2
152 | U7G G9A C12A | 1.25
153 | U7G G9A U10C U11C C12U C13U | 1.07
154 | U7G G9A U10C U11C C12U C13A | 1.05
155 | U7G G9A U10C U11C C12U C13G | 1.04
156 | U7G G9A U10G C13A | 1.11
157 | U7G G9A U10G C13U | 1.12
158 | U7G G9A U10G C13G | 1.13
159 | U7G G9A U10G U11A C12U C13U | 1.07
160 | U7G G9A U10G U11A C12U C13G | 1.05
161 | U7G G9A U10G U11A C12U C13A | 1.1
162 | U7G C13U | 1.09
163 | U7G C13A | 1.08
164 | U7G C13G | 1.05
165 | U7G G9A U10C U11A | 2.37
166 | U7G G9A U10C U11C | 1.04
167 | U7G G9A U10C U11G | 1.68
